Data on 4 molecules can be found in article PMC10793706, “Genetically engineered IgG1 and nanobody oligomers acquire strong intrinsic CD40 agonism” (Bioengineered, 2024).

Experiment [1] has as its target human CD40 expressed on HT1080-CD40 transfectants (human) (UniProt P25942).
Experiment [2] concerns the target T1, CD40-GpL, the CD40 ectodomain with a C-terminal Gaussia princeps luciferase (GpL) reporter domain (Homo sapiens, UniProt P25942).
T1 construct: extracellular domain of CD40 with its cysteine-rich domains (CRDs); also called CD40(ed)-GpL; source: HEK293T, transfected, cell culture supernatant; not shown: Gaussia princeps luciferase (GpL), C-terminal, kept
Put plainly: plate binding assay with Gaussia luciferase (GpL) fusion proteins; plates coated with 1 µg/ml protein G, loaded with anti-CD40 antibodies (1 µg/ml, in medium); GpL-linked CD40 ectodomain and its deletion mutants added for 1 hour at 37°C; TNFR2(ed)-GpL values subtracted as unspecific binding. The note with it: partners not purified.

T1 sequence (P25942 21-193): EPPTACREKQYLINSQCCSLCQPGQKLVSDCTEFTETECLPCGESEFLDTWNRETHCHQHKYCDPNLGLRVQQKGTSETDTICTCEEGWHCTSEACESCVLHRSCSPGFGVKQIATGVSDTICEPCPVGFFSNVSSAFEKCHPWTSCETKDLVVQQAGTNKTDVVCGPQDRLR
Chain of human CD40 expressed on HT1080-CD40 transfectants (human) (P25942 21-277): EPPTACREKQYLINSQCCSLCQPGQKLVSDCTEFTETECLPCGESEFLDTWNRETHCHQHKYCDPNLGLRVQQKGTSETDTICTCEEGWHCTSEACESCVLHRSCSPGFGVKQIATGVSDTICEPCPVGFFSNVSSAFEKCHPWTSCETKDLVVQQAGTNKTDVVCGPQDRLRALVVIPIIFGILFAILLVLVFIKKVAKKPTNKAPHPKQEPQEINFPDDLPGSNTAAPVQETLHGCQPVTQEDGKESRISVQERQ

For the molecule APX005M-IgG1 (N297A-RGY) (antibody), the p100 processing and TRAF1 induction (western blot) in U2OS cells; concentration from which the response starts in experiment [1] was less than 100 ng/mL.

B1: G28.5-IgG1 (antibody, V domains shown)
VH: DIQLQQSGPGLVKPSQSLSLTCSVTGYSITTNYNWNWIRQFPGNKLEWMGYIRYDGTSEYTPSLKNRVSITRDTSMNQFFLRLTSVTPEDTATYYCARLDYWGQGTLVTVSS
VL: DIVMTQNPLSLPVSLGDEASISCRSSQSLENSNGNTFLNWFFQKPGQSPQLLIYRVSNRFSGVPDRFSGSGSGTDFTLKISRVEAEDLGVYFCLQVTHVPYTFGGGTTLEIK
notes: VH of G28.5; constant region of the IgG1 heavy chain; IgG1; source: HEK293T, transfected, cell culture supernatant
As for B1, in experiment [2], the binding result is given as “binds”.

B2: ADC-1013-IgG1 (antibody, V domains shown)
VH: EVQLLESGGGLVQPGGSLRLSCAASGFTFSTYGMHWVRQAPGKGLEWLSYISGGSSYIFYADSVRGRFTISRDNSENALYLQMNSLRAEDTAVYYCARILRGGSGMDLWGQGTLVTVSS
VL: QSVLTQPPSASGTPGQRVTISCTGSSSNIGAGYNVYWYQQLPGTAPKLLIYGNINRPSGVPDRFSGSKSGTSASLAISGLRSEDEADYYCAAWDKSISGLVFGGGTKLTVL
notes: constant region of the IgG1 heavy chain; IgG1; also called Mitazalimab; source: HEK293T, transfected, cell culture supernatant
In the case of B2, the binding result in experiment [2] was “binds”.

B3: APX005M-IgG1 (antibody, V domains shown)
VH: QSLEESGGDLVKPGASLTLTCTASGFSFSSTYVCWVRQAPGKGLEWIACIYTGDGTNYSASWAKGRFTISKPSSTTVTLQMTSLTPADTATYFCARPDITYGFAINFWGPGTLVTVSS
VL: DIVMTQTPSSASEPVGGTVTIKCQASQSISSRLAWYQQKPGQPPKLLIYRASTLASGVPSRFKGSGSGTEFTLTISDLECADAATYYCQCTGYGISWPIGGGTEVVVK
notes: VH of APX005M; constant region of the IgG1 heavy chain; IgG1; also called Sotigalimab; anti-CD40(APX); source: HEK293T, transfected, cell culture supernatant
On to B3, for which the binding result in experiment [2] is on record as “binds”.
